In US20100204053:

System: RSK2
Sequence (chain, as listed by the source): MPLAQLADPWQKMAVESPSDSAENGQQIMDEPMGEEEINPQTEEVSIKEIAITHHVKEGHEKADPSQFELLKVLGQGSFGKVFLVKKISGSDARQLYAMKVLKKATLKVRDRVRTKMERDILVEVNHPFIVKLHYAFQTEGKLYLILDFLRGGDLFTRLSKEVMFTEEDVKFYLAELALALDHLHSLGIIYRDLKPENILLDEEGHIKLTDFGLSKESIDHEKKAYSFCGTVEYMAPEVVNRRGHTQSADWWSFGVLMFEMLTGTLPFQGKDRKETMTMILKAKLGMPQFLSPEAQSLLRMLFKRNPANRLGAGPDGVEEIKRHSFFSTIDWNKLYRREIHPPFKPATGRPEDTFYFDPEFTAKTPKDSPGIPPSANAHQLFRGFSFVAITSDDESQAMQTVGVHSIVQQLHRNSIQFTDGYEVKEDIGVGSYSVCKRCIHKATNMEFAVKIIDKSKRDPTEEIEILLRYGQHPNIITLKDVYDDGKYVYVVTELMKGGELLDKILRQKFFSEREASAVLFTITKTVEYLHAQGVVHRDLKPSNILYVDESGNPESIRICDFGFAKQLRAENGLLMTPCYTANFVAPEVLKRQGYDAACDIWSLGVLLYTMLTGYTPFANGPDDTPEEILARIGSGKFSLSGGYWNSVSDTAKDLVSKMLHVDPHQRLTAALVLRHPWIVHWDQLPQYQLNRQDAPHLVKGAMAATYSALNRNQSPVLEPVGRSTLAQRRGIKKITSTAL

WWP1
RSK2 ubiquitination: SHN3 and WWP1 can promote RSK2 ubiquitination
